In publication PMC4860839, “Structures of the APC–ARM domain in complexes with discrete Amer1/WTX fragments reveal that it uses a consensus mode to recognize its binding partners” (Cell Discovery, 2015):
One block for each molecule: values may come before it.

B1: GST-Amer1 (766–823), core A3 (domain or fragment, human, UniProt Q5JTC6 766-823, looked up)
chain: TVSFSQALVEFTSNGNLFSSMSCSSDSDSSFTQNLPELPPMVTFDIADVERDGEGKCE
notes: human Amer1/WTX residues 766–823; not shown: GST, N-terminal, kept
B2: Amer1-A2 peptide (residues 496–508) (peptide)
peptide: H-PRDSYSGDALYEF-OH
notes: human Amer1/WTX residues 496–508; also called hAmer1-A2 (496–508); source: synthetic peptide (Appeptide Company), HPLC purified
B3: Amer1-A1 peptide (residues 325–335) (peptide)
peptide: H-LTGCGDIIAEQ-OH
notes: human Amer1/WTX residues 325–335; also called hAmer1-A1 (325–335); source: synthetic peptide (Appeptide Company), HPLC purified
B4: Amer1 (766–823, Δ778–794) (domain or fragment, human, UniProt Q5JTC6 766-823, looked up)
chain: TVSFSQALVEFTSFTQNLPELPPMVTFDIADVERDGEGKCE
notes: human Amer1/WTX residues 766–823 with residues 778–794 deleted; not shown: GST, N-terminal, kept
B5: Amer1-A4 peptide (residues 365–375) (peptide)
peptide: H-YQGGGEEMALP-OH
notes: human Amer1/WTX residues 365–375; also called hAmer1-A4 (365–375); source: synthetic peptide (Appeptide Company), HPLC purified
B6: APC–ARM, human APC (407–751), N-terminally His-tagged (domain or fragment, UniProt P25054 407-751, looked up)
chain: LHLLEQIRAYCETCWEWQEAHEPGMDQDKNPMPAPVEHQICPAVCVLMKLSFDEEHRHAMNELGGLQAIAELLQVDCEMYGLTNDHYSITLRRYAGMALTNLTFGDVANKATLCSMKGCMRALVAQLKSESEDLQQVIASVLRNLSWRADVNSKKTLREVGSVKALMECALEVKKESTLKSVLSALWNLSAHCTENKADICAVDGALAFLVGTLTYRSQTNTLAIIESGGGILRNVSSLIATNEDHRQILRENNCLQTLLQHLKSHSLTIVSNACGTLWNLSARNPKDQEALWDMGAVSMLKNLIHSKHKMIAMGSAAALRNLMANRPAKYKDANIMSPGSSLPS
notes: human APC, armadillo repeat (ARM) domain, residues 407–751; source: E. coli BL21(DE3), purified (Ni2+-NTA, Superdex200)
B7: GST-Amer1 (280–368), full A1 (domain or fragment, human, UniProt Q5JTC6 280-368, looked up)
chain: SLEEPHSPETGEKVVAGEVNPPNGPVGDPLSLLFGDVTSLKSFDSLTGCGDIIAEQDMDSMTDSMASGGQRANRDGTKRSSCLVTYQGG
notes: the methods print full A1: 280–364; also called full Amer1-A1; not shown: GST, N-terminal, kept
B8: GST-Amer1 (365–375), A4 (domain or fragment, human)
chain: YQGGGEEMALP
notes: human Amer1/WTX residues 365–375; also called Amer1-A4; not shown: GST, N-terminal, kept
B9: GST-Amer1 (325–335), core A1 (domain or fragment, human)
chain: LTGCGDIIAEQ
notes: human Amer1/WTX residues 325–335; The results call the ITC samples peptides; the ITC methods name GST-Amer1 proteins; also called Amer1-A1; not shown: GST, N-terminal, kept
B10: GST-Amer1 (496–508), core A2 (domain or fragment, human)
chain: PRDSYSGDALYEF
notes: human Amer1/WTX residues 496–508; The results call the ITC samples peptides; the ITC methods name GST-Amer1 proteins; also called Amer1-A2; not shown: GST, N-terminal, kept
B11: GST-Amer1 (380–531), full A2 (domain or fragment, human, UniProt Q5JTC6 380-531, looked up)
chain: EEEEEEEEVELEEEEEEVKEEEEDDDLEYLWETAQMYPRPNMNLGYHPTTSPGHHGYMLLDPVRSYPGLAPGELLTPQSDQQESAPNSDEGYYDSTTPGFEDDSGEALGLVRRDCLPRDSYSGDALYEFYEPDDSLENSPPGDDCLYDLHGR
notes: the methods print full A2: 400–531; also called full Amer1-A2; not shown: GST, N-terminal, kept
B12: APC–ARM, human APC (407–775), N-terminally His-tagged (domain or fragment, UniProt P25054 407-775, looked up)
chain: LHLLEQIRAYCETCWEWQEAHEPGMDQDKNPMPAPVEHQICPAVCVLMKLSFDEEHRHAMNELGGLQAIAELLQVDCEMYGLTNDHYSITLRRYAGMALTNLTFGDVANKATLCSMKGCMRALVAQLKSESEDLQQVIASVLRNLSWRADVNSKKTLREVGSVKALMECALEVKKESTLKSVLSALWNLSAHCTENKADICAVDGALAFLVGTLTYRSQTNTLAIIESGGGILRNVSSLIATNEDHRQILRENNCLQTLLQHLKSHSLTIVSNACGTLWNLSARNPKDQEALWDMGAVSMLKNLIHSKHKMIAMGSAAALRNLMANRPAKYKDANIMSPGSSLPSLHVRKQKALEAELDAQHLSETFDN
notes: human APC, ARM domain, residues 407–775; source: E. coli BL21(DE3), purified (Ni2+-NTA, Superdex200)
B13: GST-Amer1 (716–834), A3 (domain or fragment, human, UniProt Q5JTC6 716-834, looked up)
chain: TCLMQLFQSDAMFEPDMQEANFGGSPRRAYPTYSPPEDPEEEEVEKEGNATVSFSQALVEFTSNGNLFSSMSCSSDSDSSFTQNLPELPPMVTFDIADVERDGEGKCEENPEFHNDEDL
notes: human Amer1/WTX residues 716–834; The methods list only A3: 766–823 among the GST constructs; not shown: GST, N-terminal, kept

Columns and labels:
[1] = target: FL Amer1/WTX (pcDNA-Flag-Amer1) (not stated (human or mouse cDNA cloned)) (UniProt Q5JTC6); test: co-IP; HEK293T cells transiently transfected; immunoprecipitation with anti-GFP or anti-FLAG M2 beads, western blot
[2] = target: B12; test: ITC; ITC200, 25 °C; 50 mM HEPES pH 7.5, 300 mM NaCl, 1 mM EDTA; typically 200 μM APC–ARM injected into 20 μM GST-Amer1 fragment, or 1 mM GST-Amer1 fragment into 80 μM APC–ARM; single-site model; conditions: both partners purified
[3] = target: B6; test: crystal structure; APC–ARM mixed with synthetic Amer1 peptide at 1:1.5; hanging drop, 14 °C; conditions: both partners purified
[4] = target: B11; test: ITC; ITC200, 25 °C; 50 mM HEPES pH 7.5, 300 mM NaCl, 1 mM EDTA; typically 200 μM APC–ARM injected into 20 μM GST-Amer1 fragment, or 1 mM GST-Amer1 fragment into 80 μM APC–ARM; single-site model; conditions: both partners purified
[5] = target: B9; test: as above; conditions: both partners purified
GST-Amer1 (365–375), A4 = target: B8; test: as above; conditions: both partners purified
[6] = target: B10; test: as above; conditions: both partners purified
[7] = target: B7; test: as above; conditions: both partners purified
[8] = target: B6; test: as above; conditions: both partners purified
[9] = target: B1; test: as above; conditions: both partners purified
[10] = target: B4; test: as above; conditions: both partners purified
GST-Amer1 (716–834), A3 = target: B13; test: as above; conditions: both partners purified

FL Amer1/WTX (pcDNA-Flag-Amer1) (not stated (human or mouse cDNA cloned)), sequence (Q5JTC6 whole entry, the tested form may be a part): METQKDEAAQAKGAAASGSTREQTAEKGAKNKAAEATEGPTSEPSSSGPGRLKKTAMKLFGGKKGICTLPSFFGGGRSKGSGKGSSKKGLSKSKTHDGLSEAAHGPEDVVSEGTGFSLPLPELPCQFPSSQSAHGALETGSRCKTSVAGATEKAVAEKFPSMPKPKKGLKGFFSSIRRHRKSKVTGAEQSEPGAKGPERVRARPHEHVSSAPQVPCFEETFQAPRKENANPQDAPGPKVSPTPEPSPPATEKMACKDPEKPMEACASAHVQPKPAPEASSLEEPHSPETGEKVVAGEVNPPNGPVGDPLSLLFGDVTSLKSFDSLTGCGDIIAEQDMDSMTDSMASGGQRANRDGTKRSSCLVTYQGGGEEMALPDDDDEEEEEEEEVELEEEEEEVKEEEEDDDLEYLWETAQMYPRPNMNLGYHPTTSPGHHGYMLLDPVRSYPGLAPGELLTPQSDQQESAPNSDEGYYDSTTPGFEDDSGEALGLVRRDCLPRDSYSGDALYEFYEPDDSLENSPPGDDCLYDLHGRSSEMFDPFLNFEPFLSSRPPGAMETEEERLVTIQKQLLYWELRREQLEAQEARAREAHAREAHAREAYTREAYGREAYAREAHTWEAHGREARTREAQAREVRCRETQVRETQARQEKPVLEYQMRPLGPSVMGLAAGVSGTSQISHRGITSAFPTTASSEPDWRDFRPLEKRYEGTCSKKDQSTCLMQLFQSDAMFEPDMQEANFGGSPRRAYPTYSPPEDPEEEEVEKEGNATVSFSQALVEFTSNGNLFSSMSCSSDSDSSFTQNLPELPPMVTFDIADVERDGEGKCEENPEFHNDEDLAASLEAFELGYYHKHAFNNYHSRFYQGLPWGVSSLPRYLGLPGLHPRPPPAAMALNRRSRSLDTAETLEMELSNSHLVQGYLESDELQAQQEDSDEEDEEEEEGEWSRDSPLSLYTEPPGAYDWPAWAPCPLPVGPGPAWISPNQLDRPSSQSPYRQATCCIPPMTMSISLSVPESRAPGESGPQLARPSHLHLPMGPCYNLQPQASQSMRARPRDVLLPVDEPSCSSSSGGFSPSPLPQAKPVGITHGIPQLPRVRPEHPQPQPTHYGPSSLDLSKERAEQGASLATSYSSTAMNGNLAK

reduction of association against wild type APC–ARM (densitometry) [1]: 60%
Molecule: pEGFP-APC–ARM-K516E/M717K double mutant (domain or fragment)

Molecule: B1
Kd [2]: 270 ± 70 nM

Molecule: B2
binding result [3]: binds

Molecule: B3
binding result [3]: binds

Molecule: B4
Kd [2]: 220 ± 110 nM

Molecule: B5
binding result [3]: binds

Molecule: B6
dH [4]: -3.5 ± 0.1 kcal/mol | stoichiometry N [4]: 0.92 ± 0.02 Amer1/APC ratio | dH [5]: -0.9 ± 0.1 kcal/mol | stoichiometry N [5]: 0.9 ± 0.08 Amer1/APC ratio | dH (GST-Amer1 (365–375), A4): -3.5 ± 0.1 kcal/mol | stoichiometry N (GST-Amer1 (365–375), A4): 0.95 ± 0.02 Amer1/APC ratio | dH [6]: -5.2 ± 0.2 kcal/mol | stoichiometry N [6]: 1.08 ± 0.02 Amer1/APC ratio | dH [7]: -1.12 ± 0.55 kcal/mol | stoichiometry N [7]: 0.97 ± 0.39 Amer1/APC ratio

Molecule: B7
Kd [8]: 8000 ± 4100 nM

Molecule: B8
Kd [8]: 2000 ± 300 nM

Molecule: B9
Kd [8]: 14400 ± 4300 nM

Molecule: B10
Kd [8]: 1100 ± 200 nM

Molecule: B11
Kd [8]: 500 ± 100 nM

Molecule: B12
dH [9]: -1.82 ± 0.04 kcal/mol | stoichiometry N [9]: 1 ± 0.02 Amer1/APC ratio | dH [10]: -1.39 ± 0.06 kcal/mol | stoichiometry N [10]: 1.02 ± 0.03 Amer1/APC ratio | dH (GST-Amer1 (716–834), A3): -1.82 ± 0.06 kcal/mol | stoichiometry N (GST-Amer1 (716–834), A3): 0.99 ± 0.02 Amer1/APC ratio

Molecule: B13
Kd [2]: 130 ± 60 nM
